The Human Domainome abundance scans (Beltran et al. 2025)
± gives the uncertainty stated by the source.

Assay: abundance fitness (aPCA) (normalised: wild type 0, dead -1); higher = more abundant; growth selection in yeast, the domain comes from the species named
Conditions: Homo sapiens

| Substance | abundance fitness |
| --- | --- |
| SAFB-like transcription modulator E67Y, Q9NWH9 | -0.019 ± 0.11 |
| SAFB-like transcription modulator G19A, Q9NWH9 | -0.101 ± 0.09 |
| SAFB-like transcription modulator G19C, Q9NWH9 | -0.391 ± 0.19 |
| SAFB-like transcription modulator G19D, Q9NWH9 | -0.027 ± 0.078 |
| SAFB-like transcription modulator G19E, Q9NWH9 | -0.014 ± 0.086 |
| SAFB-like transcription modulator G19I, Q9NWH9 | 0.503 ± 0.23 |
| SAFB-like transcription modulator G19R, Q9NWH9 | -0.757 ± 0.2 |
| SAFB-like transcription modulator G19S, Q9NWH9 | -0.003 ± 0.064 |
| SAFB-like transcription modulator G19T, Q9NWH9 | -0.406 ± 0.34 |
| SAFB-like transcription modulator G19V, Q9NWH9 | 0.053 ± 0.072 |
| SAFB-like transcription modulator G19W, Q9NWH9 | -0.72 ± 0.35 |
| SAFB-like transcription modulator G19Y, Q9NWH9 | 0.212 ± 0.24 |
| SAFB-like transcription modulator G43C, Q9NWH9 | -0.464 ± 0.19 |
| SAFB-like transcription modulator G43D, Q9NWH9 | -0.712 ± 0.2 |
| SAFB-like transcription modulator G43V, Q9NWH9 | -0.601 ± 0.26 |
| SAFB-like transcription modulator G60A, Q9NWH9 | -0.317 ± 0.047 |
| SAFB-like transcription modulator G60C, Q9NWH9 | -0.258 ± 0.036 |
| SAFB-like transcription modulator G60D, Q9NWH9 | -0.171 ± 0.062 |
| SAFB-like transcription modulator G60E, Q9NWH9 | -0.347 ± 0.05 |
| SAFB-like transcription modulator G60F, Q9NWH9 | -0.584 ± 0.06 |
| SAFB-like transcription modulator G60I, Q9NWH9 | -0.792 ± 0.08 |
| SAFB-like transcription modulator G60K, Q9NWH9 | -0.162 ± 0.052 |
| SAFB-like transcription modulator G60L, Q9NWH9 | -0.396 ± 0.036 |
| SAFB-like transcription modulator G60M, Q9NWH9 | -0.238 ± 0.038 |
| SAFB-like transcription modulator G60N, Q9NWH9 | -0.108 ± 0.04 |
| SAFB-like transcription modulator G60Q, Q9NWH9 | -0.181 ± 0.042 |

| Substance | abundance fitness |
| --- | --- |
| SAFB-like transcription modulator G60R, Q9NWH9 | -0.238 ± 0.033 |
| SAFB-like transcription modulator G60S, Q9NWH9 | -0.308 ± 0.041 |
| SAFB-like transcription modulator G60V, Q9NWH9 | -0.515 ± 0.04 |
| SAFB-like transcription modulator G60W, Q9NWH9 | -0.658 ± 0.047 |
| SAFB-like transcription modulator G60Y, Q9NWH9 | -0.591 ± 0.07 |
| SAFB-like transcription modulator G61A, Q9NWH9 | -0.158 ± 0.049 |
| SAFB-like transcription modulator G61C, Q9NWH9 | -0.164 ± 0.064 |
| SAFB-like transcription modulator G61D, Q9NWH9 | -0.229 ± 0.056 |
| SAFB-like transcription modulator G61E, Q9NWH9 | -0.303 ± 0.064 |
| SAFB-like transcription modulator G61F, Q9NWH9 | -0.474 ± 0.072 |
| SAFB-like transcription modulator G61H, Q9NWH9 | -0.16 ± 0.049 |
| SAFB-like transcription modulator G61I, Q9NWH9 | -0.415 ± 0.098 |
| SAFB-like transcription modulator G61K, Q9NWH9 | -0.18 ± 0.06 |
| SAFB-like transcription modulator G61L, Q9NWH9 | -0.098 ± 0.043 |
| SAFB-like transcription modulator G61M, Q9NWH9 | -0.135 ± 0.06 |
| SAFB-like transcription modulator G61N, Q9NWH9 | -0.208 ± 0.083 |
| SAFB-like transcription modulator G61P, Q9NWH9 | -0.31 ± 0.062 |
| SAFB-like transcription modulator G61Q, Q9NWH9 | -0.141 ± 0.066 |
| SAFB-like transcription modulator G61R, Q9NWH9 | -0.227 ± 0.042 |
| SAFB-like transcription modulator G61S, Q9NWH9 | -0.23 ± 0.049 |
| SAFB-like transcription modulator G61T, Q9NWH9 | -0.296 ± 0.046 |
| SAFB-like transcription modulator G61V, Q9NWH9 | -0.39 ± 0.046 |
| SAFB-like transcription modulator G61W, Q9NWH9 | -0.537 ± 0.059 |
| SAFB-like transcription modulator G61Y, Q9NWH9 | -0.259 ± 0.082 |
| SAFB-like transcription modulator I22A, Q9NWH9 | -0.65 ± 0.078 |
| SAFB-like transcription modulator I22C, Q9NWH9 | -0.347 ± 0.05 |

| Substance | abundance fitness |
| --- | --- |
| SAFB-like transcription modulator I22D, Q9NWH9 | -0.464 ± 0.087 |
| SAFB-like transcription modulator I22E, Q9NWH9 | -0.57 ± 0.11 |
| SAFB-like transcription modulator I22F, Q9NWH9 | -0.372 ± 0.087 |
| SAFB-like transcription modulator I22G, Q9NWH9 | -0.562 ± 0.044 |
| SAFB-like transcription modulator I22H, Q9NWH9 | -0.471 ± 0.12 |
| SAFB-like transcription modulator I22K, Q9NWH9 | -0.576 ± 0.072 |
| SAFB-like transcription modulator I22L, Q9NWH9 | -0.115 ± 0.061 |
| SAFB-like transcription modulator I22N, Q9NWH9 | -0.659 ± 0.11 |
| SAFB-like transcription modulator I22P, Q9NWH9 | -0.736 ± 0.089 |
| SAFB-like transcription modulator I22Q, Q9NWH9 | -0.606 ± 0.093 |
| SAFB-like transcription modulator I22R, Q9NWH9 | -0.743 ± 0.048 |
| SAFB-like transcription modulator I22S, Q9NWH9 | -0.521 ± 0.065 |
| SAFB-like transcription modulator I22T, Q9NWH9 | -0.542 ± 0.1 |
| SAFB-like transcription modulator I22V, Q9NWH9 | -0.132 ± 0.037 |
| SAFB-like transcription modulator I22W, Q9NWH9 | -0.94 ± 0.085 |
| SAFB-like transcription modulator I22Y, Q9NWH9 | -0.531 ± 0.085 |
| SAFB-like transcription modulator I28A, Q9NWH9 | 0.055 ± 0.1 |
| SAFB-like transcription modulator I28E, Q9NWH9 | -0.1 ± 0.11 |
| SAFB-like transcription modulator I28F, Q9NWH9 | -0.417 ± 0.17 |
| SAFB-like transcription modulator I28G, Q9NWH9 | -0.106 ± 0.064 |
| SAFB-like transcription modulator I28K, Q9NWH9 | -0.22 ± 0.22 |
| SAFB-like transcription modulator I28N, Q9NWH9 | -0.59 ± 0.23 |
| SAFB-like transcription modulator I28P, Q9NWH9 | 0.193 ± 0.13 |
| SAFB-like transcription modulator I28Q, Q9NWH9 | -0.36 ± 0.13 |
| SAFB-like transcription modulator I28R, Q9NWH9 | -0.018 ± 0.057 |
| SAFB-like transcription modulator I28S, Q9NWH9 | -0.411 ± 0.12 |

| Substance | abundance fitness |
| --- | --- |
| SAFB-like transcription modulator I28T, Q9NWH9 | -0.129 ± 0.12 |
| SAFB-like transcription modulator I28V, Q9NWH9 | 0.01 ± 0.069 |
| SAFB-like transcription modulator I28W, Q9NWH9 | -0.365 ± 0.11 |
| SAFB-like transcription modulator I28Y, Q9NWH9 | -0.306 ± 0.15 |
| SAFB-like transcription modulator I41A, Q9NWH9 | 0.075 ± 0.075 |
| SAFB-like transcription modulator I41C, Q9NWH9 | -0.08 ± 0.15 |
| SAFB-like transcription modulator I41D, Q9NWH9 | -0.457 ± 0.11 |
| SAFB-like transcription modulator I41E, Q9NWH9 | -0.139 ± 0.083 |
| SAFB-like transcription modulator I41F, Q9NWH9 | 0.197 ± 0.079 |
| SAFB-like transcription modulator I41G, Q9NWH9 | -0.158 ± 0.064 |
| SAFB-like transcription modulator I41H, Q9NWH9 | 0.157 ± 0.093 |
| SAFB-like transcription modulator I41K, Q9NWH9 | -0.336 ± 0.11 |
| SAFB-like transcription modulator I41L, Q9NWH9 | -0.087 ± 0.065 |
| SAFB-like transcription modulator I41M, Q9NWH9 | 0.08 ± 0.075 |
| SAFB-like transcription modulator I41N, Q9NWH9 | -0.68 ± 0.2 |
| SAFB-like transcription modulator I41Q, Q9NWH9 | -0.022 ± 0.082 |
| SAFB-like transcription modulator I41R, Q9NWH9 | -0.202 ± 0.066 |
| SAFB-like transcription modulator I41S, Q9NWH9 | -0.01 ± 0.042 |
| SAFB-like transcription modulator I41T, Q9NWH9 | -0.337 ± 0.079 |
| SAFB-like transcription modulator I41V, Q9NWH9 | -0.067 ± 0.063 |
| SAFB-like transcription modulator I41W, Q9NWH9 | -0.195 ± 0.092 |
| SAFB-like transcription modulator I41Y, Q9NWH9 | -0.172 ± 0.11 |
| SAFB-like transcription modulator I49A, Q9NWH9 | 0 ± 0.063 |
| SAFB-like transcription modulator I49C, Q9NWH9 | -0.138 ± 0.056 |
| SAFB-like transcription modulator I49D, Q9NWH9 | -0.154 ± 0.11 |
